From the supplement of paper PMC10724198
± gives the standard deviation of the averaged measurements.

What follows are sequences tested on Saccharomyces cerevisiae (assay: protein stability index of tFT-peptide fusion (C-terminal peptide) (PSI (0-1 scale)); higher = more stable (slower turnover)). Settings: genetic background: wild type; temperature: 30 C.
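Further: PSI is a weighted mean of sequencing reads over stability bins, variants kept only with over 10 reads, mCherry proximal and sfGFP distal, peptide attached via GGGS linker.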

| Sequence | protein stability index |
| --- | --- |
| PPFFFIDMGASN | 0.697 ± 0.054 |
| PPFFPLRPSLVL | 0.656 ± 0.051 |
| PPFLRSALRSSS | 0.672 ± 0.015 |
| PPFLYVLVSSIL | 0.54 ± 0.15 |
| PPFPHPSRLPPA | 0.726 ± 0.028 |
| PPFPPAPPRGPA | 0.659 ± 0.043 |
| PPGLPPGPARPP | 0.635 ± 0.036 |
| PPGPPPSSPPPP | 0.73 ± 0.024 |
| PPGSPPSLHLPP | 0.734 ± 0.021 |
| PPHCPLVLPSLS | 0.67 ± 0.044 |
| PPHHPPPTLFPA | 0.698 ± 0.076 |
| PPHNPTPSPTTP | 0.719 ± 0.11 |
| PPHPLSLSLRPP | 0.634 ± 0.034 |
| PPHPPLPPPSPS | 0.704 ± 0.056 |
| PPHPPNFSSPPP | 0.656 ± 0.023 |
| PPHPPPPAPLPS | 0.73 ± 0.029 |
| PPHPPPPSPTPP | 0.656 ± 0.019 |
| PPHPVTLSPART | 0.614 ± 0.04 |
| PPHTHTQRPSPT | 0.715 ± 0.027 |
| PPILLPPPDASH | 0.702 ± 0.025 |
| PPINPTEPPITI | 0.696 ± 0.092 |
| PPIPNPPPHPLP | 0.657 ± 0.057 |
| PPLCRSFPPASL | 0.791 ± 0.061 |
| PPLFTAAPRRWS | 0.752 ± 0.093 |
| PPLLDASPAPIL | 0.689 ± 0.024 |
| PPLLLTSLMLLP | 0.655 ± 0.034 |

| Sequence | protein stability index |
| --- | --- |
| PPLLPPVSPPPP | 0.684 ± 0.061 |
| PPLLQPPPPRLL | 0.736 ± 0.048 |
| PPLPATHLPPPP | 0.802 ± 0.058 |
| PPLPLLPPLPPP | 0.644 ± 0.034 |
| PPLPLPSPPTPH | 0.654 ± 0.021 |
| PPLPLTSPPPSP | 0.631 ± 0.024 |
| PPLPPAPTPALP | 0.684 ± 0.029 |
| PPLPPPFSPLPP | 0.686 ± 0.025 |
| PPLPPPLLPFSI | 0.747 ± 0.019 |
| PPLPPPPPAPAP | 0.634 ± 0.016 |
| PPLPPPPRSPPS | 0.7565 ± 0.0021 |
| PPLPPPSPESVS | 0.709 ± 0.056 |
| PPLPPSPPRSPP | 0.552 ± 0.029 |
| PPLPSPPAPPAP | 0.655 ± 0.0086 |
| PPLPSPPQPYSA | 0.639 ± 0.013 |
| PPLPSSLPPISF | 0.703 ± 0.015 |
| PPLRPFLLPPPS | 0.722 ± 0.077 |
| PPLRPHHPLYHS | 0.687 ± 0.011 |
| PPLSLLPSSSPH | 0.664 ± 0.0081 |
| PPLSPTLTIPPP | 0.698 ± 0.079 |
| PPLSSSALPARS | 0.692 ± 0.011 |
| PPLTPPTPVPPG | 0.6937 ± 0.0056 |
| PPLTVRPFPFRV | 0.662 ± 0.015 |
| PPLVSPPPPLPP | 0.62 ± 0.015 |
| PPNPFPALRSSP | 0.7324 ± 0.0011 |
| PPPAPPGPRYRR | 0.696 ± 0.025 |

| Sequence | protein stability index |
| --- | --- |
| PPPAPPHPPLRH | 0.682 ± 0.027 |
| PPPAPPLILVLP | 0.539 ± 0.0037 |
| PPPAPPLSPPPH | 0.653 ± 0.038 |
| PPPAPPPHRDLS | 0.709 ± 0.057 |
| PPPAPPPPLRLL | 0.721 ± 0.046 |
| PPPARPAPLSPP | 0.692 ± 0.08 |
| PPPASSPPPSAS | 0.626 ± 0.062 |
| PPPCPHLAPRLP | 0.714 ± 0.071 |
| PPPCPHRDGTSP | 0.664 ± 0.05 |
| PPPCRSLPLLPP | 0.6546 ± 0.005 |
| PPPDTPSPPSSL | 0.668 ± 0.026 |
| PPPFRPPPRLYS | 0.693 ± 0.025 |
| PPPFRTPPSRRP | 0.739 ± 0.057 |
| PPPGPSPLAAPP | 0.654 ± 0.056 |
| PPPGRPDAMTPP | 0.676 ± 0.022 |
| PPPGSPLPPPRA | 0.702 ± 0.036 |
| PPPILFTEPPLA | 0.738 ± 0.0049 |
| PPPIPLSPPLVL | 0.72 ± 0.014 |
| PPPIPPFRLSRS | 0.69 ± 0.061 |
| PPPLLPPTPLPP | 0.619 ± 0.0069 |
| PPPLPLPPPPPP | 0.58 ± 0.048 |
| PPPLPPPAPPPR | 0.663 ± 0.014 |
| PPPLPPPLPLCS | 0.675 ± 0.023 |
| PPPLPPPYPPPP | 0.627 ± 0.016 |
| PPPLPSPPRPPS | 0.734 ± 0.045 |
| PPPLPTRPPPSA | 0.649 ± 0.0082 |

| Sequence | protein stability index |
| --- | --- |
| PPPLRTHTGPPP | 0.678 ± 0.0069 |
| PPPLSPPLPFFV | 0.666 ± 0.036 |
| PPPLSSPPPRPL | 0.709 ± 0.058 |
| PPPLTPPPPPPR | 0.725 ± 0.014 |
| PPPNPHAASTHH | 0.654 ± 0.0077 |
| PPPPAFPPPLSP | 0.716 ± 0.067 |
| PPPPAHPPPRSP | 0.741 ± 0.035 |
| PPPPANVSHHAP | 0.593 ± 0.073 |
| PPPPAPPPPVPS | 0.69246 ± 0.00027 |
| PPPPAPSPPPSP | 0.717 ± 0.0094 |
| PPPPASARPSLP | 0.477 ± 0.069 |
| PPPPFLLPPLLD | 0.707 ± 0.012 |
| PPPPHFLVPLSP | 0.695 ± 0.021 |
| PPPPLDSFPFIT | 0.701 ± 0.043 |
| PPPPLLPPPSPL | 0.7 ± 0.032 |
| PPPPLLPTPRPF | 0.682 ± 0.039 |
| PPPPLPPPPSPA | 0.7911 ± 0.0045 |
| PPPPLPPPSHYP | 0.728 ± 0.033 |
| PPPPLPRAPFSP | 0.661 ± 0.0092 |
| PPPPLPSPAPRP | 0.735 ± 0.032 |
| PPPPLSPPPEPR | 0.659 ± 0.014 |
| PPPPNPPRPSSR | 0.758 ± 0.026 |
| PPPPPALPSPPP | 0.631 ± 0.025 |
| PPPPPAPPPTPL | 0.556 ± 0.011 |
| PPPPPATRPSSL | 0.674 ± 0.018 |
| PPPPPFLPPPRL | 0.749 ± 0.011 |

| Sequence | protein stability index |
| --- | --- |
| PPPPPGLAPPSP | 0.681 ± 0.011 |
| PPPPPHRTPHPS | 0.727 ± 0.096 |
| PPPPPLPLDYPP | 0.638 ± 0.025 |
| PPPPPLPPRSCL | 0.703 ± 0.013 |
| PPPPPLSPHSPP | 0.699 ± 0.023 |
| PPPPPPALPEYQ | 0.708 ± 0.01 |
| PPPPPPLAAPPS | 0.7098 ± 0.0053 |
| PPPPPPLPHSPP | 0.647 ± 0.095 |
| PPPPPPLPLLSI | 0.668 ± 0.038 |
| PPPPPPLSSPFP | 0.643 ± 0.032 |
| PPPPPPNPLPLP | 0.68 ± 0.032 |
| PPPPPPPHSPLS | 0.685 ± 0.04 |
| PPPPPPPLPLLP | 0.667 ± 0.036 |
| PPPPPPPPLAPP | 0.694 ± 0.022 |
| PPPPPPPPPPRA | 0.723 ± 0.035 |
| PPPPPPPPPTFL | 0.708 ± 0.017 |
| PPPPPPPPSLSP | 0.591 ± 0.047 |
| PPPPPPPPTTVL | 0.709 ± 0.023 |
| PPPPPPRPPLRP | 0.727 ± 0.012 |
| PPPPPPVHPSSP | 0.728 ± 0.0081 |
| PPPPPPVSPAAL | 0.69 ± 0.018 |
| PPPPPRLTPPRL | 0.722 ± 0.09 |
| PPPPPRPPPSSP | 0.746 ± 0.058 |
| PPPPPRPSPHPP | 0.62 ± 0.058 |
| PPPPPSPSASSP | 0.491 ± 0.11 |
| PPPPPSPSPCLA | 0.767 ± 0.044 |

| Sequence | protein stability index |
| --- | --- |
| PPPPPTAPPPSR | 0.733 ± 0.055 |
| PPPPPTRPPTRV | 0.68 ± 0.079 |
| PPPPRAPVPLPV | 0.575 ± 0.022 |
| PPPPRLPLDPPL | 0.658 ± 0.041 |
| PPPPSPPATPAP | 0.652 ± 0.015 |
| PPPPSPPLHRPP | 0.738 ± 0.016 |
| PPPPSPPPPSTT | 0.751 ± 0.08 |
| PPPPTLPPPLVP | 0.726 ± 0.12 |
| PPPPTSFSPGTL | 0.649 ± 0.043 |
| PPPPTSPTSPEL | 0.692 ± 0.051 |
| PPPRHVPLPPLT | 0.71 ± 0.11 |
| PPPRLDTGAAQP | 0.665 ± 0.0097 |
| PPPRLVPSPPVP | 0.7 ± 0.0039 |
| PPPRPPGPPLPH | 0.702 ± 0.075 |
| PPPRPPPAPLAS | 0.705 ± 0.027 |
| PPPRVPPPVPPL | 0.722 ± 0.047 |
| PPPSDPLPPSVR | 0.7044 ± 0.0067 |
| PPPSPAQIPRPS | 0.722 ± 0.19 |
| PPPSPPHFTSPP | 0.683 ± 0.006 |
| PPPSRSLPPTPP | 0.746 ± 0.084 |
| PPPSSSGHPLHY | 0.714 ± 0.05 |
| PPPSSSLAAPPT | 0.677 ± 0.026 |
| PPPSSSSPPPPR | 0.704 ± 0.039 |
| PPPSYSPSLSLL | 0.63132 ± 0.00041 |
| PPPTPACPPATL | 0.693 ± 0.039 |
| PPPTPPPPRPLL | 0.747 ± 0.048 |

| Sequence | protein stability index |
| --- | --- |
| PPPTPSGPHPAP | 0.672 ± 0.028 |
| PPPTRPPPPPSL | 0.704 ± 0.075 |
| PPPVDLPTRLIP | 0.642 ± 0.0073 |
| PPPYHLTPPPPF | 0.662 ± 0.052 |
| PPQLHVALPHPE | 0.852 ± 0.2 |
| PPQRNFPARPTP | 0.6988 ± 0.0034 |
| PPRARPRLPPGA | 0.606 ± 0.04 |
| PPRHTPTNPPKA | 0.677 ± 0.05 |
| PPRLPPLPPSYP | 0.777 ± 0.14 |
| PPRPPLPPTLPP | 0.6973 ± 0.0026 |
| PPRPPPSPPLPS | 0.663 ± 0.054 |
| PPRPPRPSPPPP | 0.72293 ± 8.1e-05 |
| PPRPRPPLPALP | 0.764 ± 0.11 |
| PPRPRPPPSPYH | 0.667 ± 0.011 |
| PPRPVPRPHPRP | 0.674 ± 0.011 |
| PPRQSHHPNPQH | 0.682 ± 0.038 |
| PPRRPPLAPPPP | 0.693 ± 0.019 |
| PPRSSLNPDLTQ | 0.695 ± 0.1 |
| PPRYDSLFGALF | 0.676 ± 0.066 |
| PPSAPPSPPHPP | 0.612 ± 0.011 |
| PPSFLHPTPRPR | 0.673 ± 0.082 |
| PPSLLPAPQLPP | 0.757 ± 0.066 |
| PPSLLPSPPRLF | 0.667 ± 0.057 |
| PPSLPHLCRLHL | 0.668 ± 0.057 |
| PPSLPLPLPSAP | 0.683 ± 0.015 |
| PPSLVSPSSPPS | 0.708 ± 0.047 |

| Sequence | protein stability index |
| --- | --- |
| PPSPLAPPCSPR | 0.6719 ± 0.0056 |
| PPSPLSRYSPRL | 0.754 ± 0.0043 |
| PPSPPAPSPTPP | 0.721 ± 0.038 |
| PPSPPDPLLCSP | 0.7017 ± 0.0043 |
| PPSPPPPRPPSS | 0.704 ± 0.055 |
| PPSPPSHTPPPS | 0.695 ± 0.051 |
| PPSPRFFPSFPP | 0.729 ± 0.021 |
| PPSPRNSDPPPL | 0.654 ± 0.071 |
| PPSPRPALPLSL | 0.762 ± 0.039 |
| PPSPRPPPSPPP | 0.7 ± 0.039 |
| PPSPSLLPPLPP | 0.684 ± 0.041 |
| PPSPSPHPPPSH | 0.842 ± 0.15 |
| PPSPSPLPHSSP | 0.676 ± 0.058 |
| PPSQLWNSPSPC | 0.767 ± 0.064 |
| PPSRFPAPPSCA | 0.705 ± 0.059 |
| PPSSPLRRRTTS | 0.725 ± 0.078 |
| PPSSPPPASHRP | 0.691 ± 0.046 |
| PPSTPPRPDSPP | 0.578 ± 0.084 |
| PPTANLAHSSHP | 0.693 ± 0.014 |
| PPTHHRALRPSA | 0.687 ± 0.026 |
